Numbering of substitutions follows the chain as printed. Names and notes keep the numbering of the source.

Sequences and labels used below:
B1: L5 isolate with insertion SEQ ID NO: 490 (other)
chain: EPKSCDKTHTCPPCPAPELLGGPSVFLFPPKPKDTLMISRTPEVTCVVVDVSHEDPEVKFNWYVDGVEVHNAKTKPREEQYNSTYRVVSVLTVLHQDWLNGKEYKCKVSNKALPAPIEKTISKAKGQPREPQVYTLPPSRDELTKNQVSLTCLVKGFYPSDIAVEWESNGGCDRQVTGFCGGGQPENNYKTTPPVLDSDGSFFLYSKLTVDKSRWQQGNVFSCSVMHEALHNHYTQKSLSLSPGK
B2: L6A isolate with insertion SEQ ID NO: 400 (other)
chain: EPKSCDKTHTCPPCPAPELLGGPSVFLFPPKPKDTLMISRTPEVTCVVVDVSHEDPEVKFNWYVDGVEVHNAKTKPREEQYNSTYRVVSVLTVLHQDWLNGKEYKCKVSNKALPAPIEKTISKAKGQPREPQVYTLPPSRDELGGCRAGYGDASCGGTKNQVSLTCLVKGFYPSDIAVEWESNGQPENNYKTTPPVLDSDGSFFLYSKLTVDKSRWQQGNVFSCSVMHEALHNHYTQKSLSLSPGK
B3: L6A isolate with insertion SEQ ID NO: 465 (other)
chain: B2 chain with R147F, A148T, G149N, G151A, D152S, A153E, S154K
B4: L6B isolate with insertion SEQ ID NO: 427 (other)
chain: B2 chain with R147V, A148Q, G149H, Y150K, G151M, D152G, A153V, S154V
B5: L6A isolate with insertion SEQ ID NO: 474 (other)
chain: B2 chain with R147A, A148K, G149D, Y150Q, G151H, D152T, A153G
B6: L6B isolate with insertion SEQ ID NO: 471 (other)
chain: B2 chain with R147L, A148R, G149N, Y150F, G151M, D152K, A153Q
B7: L6B isolate with insertion SEQ ID NO: 473 (other)
chain: B2 chain with R147S, A148F, G149S, Y150R, G151H, D152M, A153G, S154A
B8: L6B isolate with insertion SEQ ID NO: 468 (other)
chain: B2 chain with R147T, A148L, Y150S, G151A, D152P, A153T, S154L
B9: L6B isolate with insertion SEQ ID NO: 457 (other)
chain: B2 chain with R147N, A148Q, G149S, Y150S, G151S, D152R, A153E, S154A
B10: L6A isolate with insertion SEQ ID NO: 467 (other)
chain: B2 chain with R147E, A148R, G149H, Y150F, G151P, D152A, A153L, S154F
B11: L6A isolate with insertion SEQ ID NO: 466 (other)
chain: B2 chain with R147D, A148R, G149F, Y150Q, G151N, D152V, A153N, S154V
B12: L6B isolate with insertion SEQ ID NO: 469 (other)
chain: B2 chain with R147E, A148M, G149M, Y150K, G151N, D152K, A153S, S154G
B13: L6B isolate with insertion SEQ ID NO: 440 (other)
chain: B2 chain with R147N, G149T, Y150L, G151S, D152G, A153Y, S154L
B14: L6B isolate with insertion SEQ ID NO: 472 (other)
chain: B2 chain with R147P, A148N, G149D, Y150T, G151V, D152R, A153D, S154A
B15: L6B isolate with insertion SEQ ID NO: 454 (other)
chain: B2 chain with R147Y, A148G, G149K, Y150A, D152M, A153R, S154D
B16: L6B isolate with insertion SEQ ID NO: 460 (other)
chain: B2 chain with R147G, A148E, G149Y, Y150N, G151Y, D152V, A153G, S154G
B17: L6B isolate with insertion SEQ ID NO: 410 (other)
chain: B2 chain with R147L, A148K, Y150M, G151H, D152G, A153S, S154A
B18: L6A isolate with insertion SEQ ID NO: 458 (other)
chain: B2 chain with R147N, A148P, G149V, Y150S, G151T, D152G, S154Y
B19: L5 isolate with insertion SEQ ID NO: 484 (other)
chain: EPKSCDKTHTCPPCPAPELLGGPSVFLFPPKPKDTLMISRTPEVTCVVVDVSHEDPEVKFNWYVDGVEVHNAKTKPREEQYNSTYRVVSVLTVLHQDWLNGKEYKCKVSNKALPAPIEKTISKAKGQPREPQVYTLPPSRDELTKNQVSLTCLVKGFYPSDIAVEWESNGGCYASPHECGGGQPENNYKTTPPVLDSDGSFFLYSKLTVDKSRWQQGNVFSCSVMHEALHNHYTQKSLSLSPGK
B20: L5 isolate with insertion SEQ ID NO: 488 (other)
chain: B19 chain with Y173G, A174P, S175Y, P176K, H177T
B21: L5 isolate with insertion SEQ ID NO: 489 (other)
chain: B19 chain with Y173Q, A174P, S175Q, P176A, H177S, E178W
B22: L5 isolate with insertion SEQ ID NO: 485 (other)
chain: B19 chain with Y173M, A174P, S175P, P176Q, H177W, E178M
B23: L5 isolate with insertion SEQ ID NO: 491 (other)
chain: B19 chain with C172S, Y173Q, A174R, S175A, H177A, E178S
B24: variant Fc-fragment Fc-5-66 (other)
chain: B19 chain with Y173E, A174R, S175F, P176H, E178A
notes: soluble elsewhere
B25: L5 isolate with insertion SEQ ID NO: 486 (other)
chain: B19 chain with Y173D, A174T, S175I, P176G, H177W, E178F
B26: L5 isolate with insertion SEQ ID NO: 495 (other)
chain: B19 chain with Y173L, A174M, P176Q, H177D, E178L
B27: L5 isolate with insertion SEQ ID NO: 493 (other)
chain: B19 chain with Y173L, A174L, S175P, P176N, H177M, E178F
B28: L5 isolate with insertion SEQ ID NO: 492 (other)
chain: B19 chain with Y173M, A174M, S175R, P176E, H177Q, E178G
B29: L5 isolate with insertion SEQ ID NO: 496 (other)
chain: B19 chain with Y173G, A174G, S175P, P176Y, H177V, E178F
B30: L5 isolate with insertion SEQ ID NO: 494 (other)
chain: B19 chain with Y173C, A174P, S175V, P176Y, H177Q, E178H
B31: L5 isolate with insertion SEQ ID NO: 487 (other)
chain: B19 chain with Y173G, A174I, S175F, P176E, H177S, E178W
B32: variant Fc-fragment Fc-5-110 (other)
chain: B19 chain with Y173W, A174G, P176R, H177S, E178Q
notes: library L5 isolate

The target in one assay is T1, human neonatal Fc receptor (hFcRn) (human, UniProt P55899 24-290; P61769 21-119).
T1 construct: Biotinylated in the ELISA, Octet and yeast assays; also called human FcRn; huFcRn
T1 sequence (P55899 24-290 limits assumed, chain 1 of 2): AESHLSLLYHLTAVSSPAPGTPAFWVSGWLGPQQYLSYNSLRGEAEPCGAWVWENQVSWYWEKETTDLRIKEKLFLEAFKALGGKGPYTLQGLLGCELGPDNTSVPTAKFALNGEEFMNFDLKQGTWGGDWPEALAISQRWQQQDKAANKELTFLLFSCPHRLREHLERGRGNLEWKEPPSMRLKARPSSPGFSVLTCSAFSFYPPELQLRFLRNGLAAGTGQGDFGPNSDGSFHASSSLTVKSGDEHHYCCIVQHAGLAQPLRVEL
T1 sequence (P61769 21-119 limits assumed, chain 2 of 2): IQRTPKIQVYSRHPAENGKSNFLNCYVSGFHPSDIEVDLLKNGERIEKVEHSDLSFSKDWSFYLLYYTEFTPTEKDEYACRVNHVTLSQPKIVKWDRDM
The assay is described as follows: phage ELISA pH 6.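 Also: higher score means stronger binding and above about 3 to 5 exceeds background.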 The protocol: (§1) Approximately 100 μL of biotinylated human FcRn at 2 μg/mL was added to the wells of MAXISORP™ plates coated with 10 μg/mL streptavidin. After washing with PBS plus 0.05% Tween 20 (PBST) five times, phage from the overnight cultures in MES buffer at pH 6.0 or pH 7.4 were added to the plates and incubated at room temperature for 1 hr. A horseradish peroxidase (HRP)-conjugated anti-M13 antibody was used to detect the binding phage, and the plates were scored by a microtiter plate reader using a wavelength in the visible range.
(§2) Binding was assessed by a quantitative enzyme-linked immunoadsorbent assay (ELISA). The ELISA scores reflect binding affinity, with higher scores meaning higher affinity. Typically, scores higher than about 3˜5 indicate binding above background. For library L5, the insertions are between the N169 and G170 according to the numbering in FIG. 2. For libraries 6A and 6B, the insertions are between L143 and T144 according to the numbering in FIG. 2.
Take B1: the ELISA score turned out to be 25.

On to B2, for which the ELISA score was 79.5.

B3 showed an ELISA score of 45.2.

Regarding B4, the ELISA score was found to be 58.9.

The molecule B5 gave an ELISA score of 41.2.

In turn, B6 returned an ELISA score of 42.3.

In turn, B7 displayed an ELISA score of 41.8.

On to B8, for which the ELISA score is 43.6.

The molecule B9 gave an ELISA score of 49.2.

Molecule B10 registered an ELISA score of 43.8.

Take B11: the ELISA score came out at 44.

Consider B12, for which the ELISA score amounted to 43.2.

B13: the ELISA score is 54.9.

The molecule B14 came in with an ELISA score of 42.2.

As for B15, the ELISA score was 50.1.

B16 showed an ELISA score of 47.2.

Take B17: the ELISA score was 68.9.

Turning to B18, the ELISA score turned out to be 48.5.

Regarding B19, the ELISA score was found to be 27.7.

For the molecule B20, the ELISA score came to 26.1.

Regarding B21, the ELISA score is 25.2.

Take B22: the ELISA score came out at 27.5.

For B23, the ELISA score worked out at 24.9.

With B24, the ELISA score came out at 51.2.

For B25, the ELISA score came out at 26.9.

Consider B26, for which the ELISA score was found to be 21.5.

B27 returned an ELISA score of 22.

As to B28, the ELISA score stood at 23.9.

B29 yielded an ELISA score of 21.3.

For the molecule B30, the ELISA score is 21.7.

On to B31, for which the ELISA score stood at 26.3.

The target of another assay is T1, human neonatal Fc receptor (hFcRn). Put plainly: phage ELISA pH 7.4.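 Also: higher score means stronger binding and above about 3 to 5 exceeds background.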 The protocol: as §1, §2
(An ELISA detects its analyte on a solid surface through an enzyme-linked reagent.)
As to B1, the ELISA score was determined as 0.4.

B2 returned an ELISA score of 0.7.

On to B3, for which the ELISA score worked out at 0.3.

With B4, the ELISA score stood at 0.8.

The molecule B5 returned an ELISA score of 0.2.

For the molecule B6, the ELISA score was 0.2.

The molecule B7 yielded an ELISA score of 0.3.

Turning to B8, the ELISA score came out at 0.2.

B9 yielded an ELISA score of 0.4.

The molecule B10 returned an ELISA score of 0.6.

The molecule B11 had an ELISA score of 0.2.

B12: the ELISA score was 0.3.

Consider B13, for which the ELISA score is 0.6.

For the molecule B14, the ELISA score is 0.4.

As for B15, the ELISA score is 0.4.

Turning to B16, the ELISA score worked out at 0.4.

The molecule B17 came in with an ELISA score of 0.8.

In turn, B18 returned an ELISA score of 0.2.

For B19, the ELISA score is 1.

Molecule B20 had an ELISA score of 0.9.

In turn, B21 displayed an ELISA score of 0.7.

B22 yielded an ELISA score of 2.1.

For B23, the ELISA score came out at 1.2.

Molecule B24 displayed an ELISA score of 0.5.

With B25, the ELISA score was 1.4.

B26: the ELISA score was 1.

The molecule B27 yielded an ELISA score of 1.

For the molecule B28, the ELISA score stood at 1.5.

In the case of B29, the ELISA score was 1.4.

For the molecule B30, the ELISA score is 0.3.

B31 had an ELISA score of 0.7.

For a further assay the target is unchanged. Put plainly: SPR competition pH 5.5. The protocol:
Binding of variant Fc-fragments to human and cynomolgus monkey FcRn was tested using a BIAcore® T100 analysis system (GE Healthcare Bio-Sciences AB Private Limited Liability Company, Uppsala, Sweden) at both pH 5.5 and pH 7.4. The test consisted of incubating various concentrations of the variant Fc-fragments or control Fc-fragments with a fixed amount of human or cynomolgus monkey FcRn under binding conditions and subsequently measuring the amount of free, unbound FcRn in these mixtures by binding to a surface (in a flow cell of a CM5 (Biacore) chip) on which an Fc-fragment was immobilized. […] Thus, the amount of unbound FcRn in the mixture was quantitatively ascertained by surface plasmon resonance through use of the BIAcore® T100 analysis system. […] Initially, a group of 23 variant-Fc-fragments (Fc-5-1 being considered a control) identified in the experiments described above were tested for binding to human FcRn.
To obtain a reasonable signal for the different molecules and conditions tested, different assay conditions were used. For assays at pH 5.5, 10 nM of human or cynomolgus monkey FcRn was mixed with serial dilutions of the variant and control Fc-fragments being tested (which ranged from 0.1˜2,000 nM) and incubated for 1 hour at room temperature in 10 mM sodium acetate, pH 5.5, 150 mM NaCl, 0.005% P20, 0.1 mg/mL BSA. As positive controls, […] human and cynomolgus monkey FcRn were each incubated in the same solution, for the same time, and at the same temperature described immediately above, but without an added Fc-fragment.
As a reminder, the EC50 is the concentration giving half of the maximal effect. Read a high EC50 as a need for much substance. As to B32, the response was half-maximal at 250 nM (EC50).

Source of the values: patent US20140356358A1 (Amgen, published 2014).
